In this experiment the target is murine MBP::ob fusion protein (+Gln), construct pCZR90 (mouse).

“Bovine Factor Xa (from UniProt P00743) (enzyme)” displayed a Factor Xa cleavage of the MBP::ob fusion protein of 9%.

The record behind these values is US5827734.
